Measurements published in patent publication US20260167720A1 (Amgen, published 2026).

B1: MSLN-CDH3 T-cell engager molecule 2 (heteroFc multichain) (bispecific antibody)
chain 1: QVQLVQSGAEVKKPGASVKVSCKASGYTFTNYWMNWVRQAPGQCLEWMGNIAYGVAGTNYNQKFQGRVTMTVDTSSSTAYMELSRLRSDDTAVYYCATRYFYVMDYWGQGTLVTVSSGGGGQGGGGQGGGGQEIQMTQSPSSLSASVGDRVTITCRASQDISNYLNWYQQKPGKVPKLLIYYTSRLHSGVPSRFSGSGSGTDFTLTISSLQPEDVATYYCVQYAQFPLTFGCGTKVEIKSGGGGQEVQLVESGGGLVQPGGSLKLSCAASGFTFNKYAMNWVRQAPGKGMEWVARIRSKYNNYATYYADAVKDRFTISRDDSKNTLYLQMNNLKTEDTAVYYCVRAGNFGSSYISYFAYWGQGTLVTVSSGGGGQGGGGQGGGGQQTVVTQEPSLTVSPGGTVTITCGSSTGAVTSGNYPNWIQKKPGQAPRGLIGGTKFLAPGTPARFSGSLEGGKAALTLSGVQPEDEAEYYCVLYYSNRWVFGSGTKLTVLGGGGCPPCPAPELLGGPSVFLFPPKPKDTLMISRTPEVTCVVVDVSHEDPEVKFNWYVDGVEVHNAKTKPCEEQYGSTYRCVSVLTVLHQDWLNGKEYKCKVSNKALPAPIEKTISKAKGQPREPQVYTLPPSREEMTKNQVSLTCLVKGFYPSDIAVEWESNGQPENNYDTTPPVLDSDGSFFLYSDLTVDKSRWQQGNVFSCSVMHEALHNHYTQDSLSLSPGK
chain 2: CPPCPAPELLGGPSVFLFPPKPKDTLMISRTPEVTCVVVDVSHEDPEVKFNWYVDGVEVHNAKTKPCEEQYGSTYRCVSVLTVLHQDWLNGKEYKCKVSNKALPAPIEKTISKAKGQPREPQVYTLPPSRKEMTKNQVSLTCLVKGFYPSDIAVEWESNGQPENNYKTTPPVLKSDGSFFLYSKLTVDKSRWQQGNVFSCSVMHEALHNHYTQKSLSLSPGKGGGGQVQLQESGPGLVKPSETLSLTCTVSGGSISSSSYFWGWIRQPPGKCLEWIGNIYYSGSSNYNPSLKSRVTISVDTSKNQFSLKLSSVTAADTAVYYCARLPRGDRDAFDIWGQGTMVTVSSGGGGQGGGGQGGGGQEIVMTQSPSSLSASVGDRVTITCRASQGISNYLAWYQQKPGKVPKLLIYAASTLQSGVPSRFSGSGSGTDFTLTISSLQPEDFATYYCQQSYSTPFTFGCGTKVEIKSGGGGQEVQLVESGGGLVQPGGSLKLSCAASGFTFNKYAMNWVRQAPGKGMEWVARIRSKYNNYATYYADAVKDRFTISRDDSKNTLYLQMNNLKTEDTAVYYCVRAGNFGSSYISYFAYWGQGTLVTVSSGGGGQGGGGQGGGGQQTVVTQEPSLTVSPGGTVTITCGSSTGAVTSGNYPNWIQKKPGQAPRGLIGGTKFLAPGTPARFSGSLEGGKAALTLSGVQPEDEAEYYCVLYYSNRWVFGSGTKLTVL
B2: MSLN-CDH3 T-cell engager molecule 1 (scFc single chain) (bispecific antibody)
chain: QVQLVQSGAEVKKPGASVKVSCKASGYTFTNYWMNWVRQAPGQCLEWMGNIAYGVAGTNYNQKFQGRVTMTVDTSSSTAYMELSRLRSDDTAVYYCATRYFYVMDYWGQGTLVTVSSGGGGQGGGGQGGGGQEIQMTQSPSSLSASVGDRVTITCRASQDISNYLNWYQQKPGKVPKLLIYYTSRLHSGVPSRFSGSGSGTDFTLTISSLQPEDVATYYCVQYAQFPLTFGCGTKVEIKSGGGGQEVQLVESGGGLVQPGGSLKLSCAASGFTFNKYAMNWVRQAPGKGMEWVARIRSKYNNYATYYADAVKDRFTISRDDSKNTLYLQMNNLKTEDTAVYYCVRAGNFGSSYISYFAYWGQGTLVTVSSGGGGQGGGGQGGGGQQTVVTQEPSLTVSPGGTVTITCGSSTGAVTSGNYPNWIQKKPGQAPRGLIGGTKFLAPGTPARFSGSLEGGKAALTLSGVQPEDEAEYYCVLYYSNRWVFGSGTKLTVLGGGGCPPCPAPELLGGPSVFLFPPKPKDTLMISRTPEVTCVVVDVSHEEPEVKFNWYVDGVEVHNAKTKPCEEQYGSTYRCVSVLTVLHQDWLNGKEYKCKVSNKALPAPIEKTISKAKGQPREPQVYTLPPSREEMTKNQVSLTCLVKGFYPSDIAVEWESNGQPENNYKTTPPVLDSDGSFFLYSKLTVDKSRWQQGNVFSCSVMHEALHNHYTQKSLSLSPGKGGGGQGGGGQGGGGQGGGGQGGGGQGGGGQCPPCPAPELLGGPSVFLFPPKPKDTLMISRTPEVTCVVVDVSHEEPEVKFNWYVDGVEVHNAKTKPCEEQYGSTYRCVSVLTVLHQDWLNGKEYKCKVSNKALPAPIEKTISKAKGQPREPQVYTLPPSREEMTKNQVSLTCLVKGFYPSDIAVEWESNGQPENNYKTTPPVLDSDGSFFLYSKLTVDKSRWQQGNVFSCSVMHEALHNHYTQKSLSLSPGKGGGGQVQLQESGPGLVKPSETLSLTCTVSGGSISSSSYFWGWIRQPPGKCLEWIGNIYYSGSSNYNPSLKSRVTISVDTSKNQFSLKLSSVTAADTAVYYCARLPRGDRDAFDIWGQGTMVTVSSGGGGQGGGGQGGGGQEIVMTQSPSSLSASVGDRVTITCRASQGISNYLAWYQQKPGKVPKLLIYAASTLQSGVPSRFSGSGSGTDFTLTISSLQPEDFATYYCQQSYSTPFTFGCGTKVEIKSGGGGQEVQLVESGGGLVQPGGSLKLSCAASGFTFNKYAMNWVRQAPGKGMEWVARIRSKYNNYATYYADAVKDRFTISRDDSKNTLYLQMNNLKTEDTAVYYCVRAGNFGSSYISYFAYWGQGTLVTVSSGGGGQGGGGQGGGGQQTVVTQEPSLTVSPGGTVTITCGSSTGAVTSGNYPNWIQKKPGQAPRGLIGGTKFLAPGTPARFSGSLEGGKAALTLSGVQPEDEAEYYCVLYYSNRWVFGSGTKLTVL
B3: MSLN-CDH3 T-cell engager molecule 3 (example to FIG. 2A) (bispecific antibody)
chain 1: not shown
chain 2: EVQLVESGGGLVQPGGSLKLSCAASGFTFNKYAMNWVRQAPGKGMEWVARIRSKYNNYATYYADAVKDRFTISRDDSKNTLYLQMNNLKTEDTAVYYCVRAGNFGSSYISYFAYWGQGTLVTVSSGGGGQGGGGQGGGGQQTVVTQEPSLTVSPGGTVTITCGSSTGAVTSGNYPNWIQKKPGQAPRGLIGGTKFLAPGTPARFSGSLEGGKAALTLSGVQPEDEAEYYCVLYYSNRWVFGSGTKLTVLGGGGQGGGGQGGGGQDKTHTCPPCPAPELLGGPSVFLFPPKPKDTLMISRTPEVTCVVVDVSHEDPEVKFNWYVDGVEVHNAKTKPCEEQYGSTYRCVSVLTVLHQDWLNGKEYKCKVSNKALPAPIEKTISKAKGQPREPQVYTLPPSRKEMTKNQVSLTCLVKGFYPSDIAVEWESNGQPENNYKTTPPVLKSDGSFFLYSKLTVDKSRWQQGNVFSCSVMHEALHNHYTQKSLSLSPGKGGGGQGGGGQGGGGQEVQLVESGGGLVQPGGSLKLSCAASGFTFNKYAMNWVRQAPGKGMEWVARIRSKYNNYATYYADAVKDRFTISRDDSKNTLYLQMNNLKTEDTAVYYCVRAGNFGSSYISYFAYWGQGTLVTVSSGGGGQGGGGQGGGGQQTVVTQEPSLTVSPGGTVTITCGSSTGAVTSGNYPNWIQKKPGQAPRGLIGGTKFLAPGTPARFSGSLEGGKAALTLSGVQPEDEAEYYCVLYYSNRWVFGSGTKLTVL

Molecular target: T1, CDH3 (Cadherin-3, P-Cadherin) on HCT116 or GSU cells (UniProt P22223 108-829, limits assumed)
Experiment: cell-based or functional assay

EC50 HCT116 KO MSLN [pM]; TDCC, MSLN knocked out, CDH3 left [pM] | EC50 HCT116 WT [pM]; TDCC, cells double positive for CDH3 and MSLN [pM] | Binder
1.77 | 0.013 | B1
1.08 | 0.003 | B2
0.38 | 0.005 | B3

Molecular target: T2, MSLN (Mesothelin) on HCT116 or GSU cells (UniProt Q13421 37-598, limits assumed)
Experiment: cell-based or functional assay

EC50 HCT116 KO CDH3 [pM]; TDCC, CDH3 knocked out, MSLN left [pM] | EC50 HCT116 WT [pM]; TDCC, cells double positive for CDH3 and MSLN [pM] | Binder
3.48 | 0.013 | B1
1.76 | 0.003 | B2
3.19 | 0.005 | B3

Molecular target: T1, CDH3 (Cadherin-3, P-Cadherin) on HCT116 …
Experiment: cell-based or functional assay
Remark: another data set of the same source

EC50 GSU KO MSLN [pM]; TDCC, MSLN knocked out, CDH3 left [pM] | EC50 GSU WT [pM]; TDCC, cells double positive for CDH3 and MSLN [pM] | Binder
349 | 0.039 | B1
103 | 0.013 | B2
55.3 | 0.073 | B3

Molecular target: T2, MSLN (Mesothelin) on HCT116 or GSU cells
Experiment: cell-based or functional assay
Remark: another data set of the same source

EC50 GSU KO CDH3 [pM]; TDCC, CDH3 knocked out, MSLN left [pM] | EC50 GSU WT [pM]; TDCC, cells double positive for CDH3 and MSLN [pM] | Binder
2.5 | 0.039 | B1
0.47 | 0.013 | B2
7.5 | 0.073 | B3
